{"source": "the RNAGym collection of RNA variant scans (doi:10.1073/pnas.2313332121)", "parents": {"B1": {"name": "TPR t1 (parent)", "chain": "GACCAAUCUGCCCUCAGAGCUCGAGAACAUCUUCGGAUGCAGAGGAGGCAGGCUUCGGUGGCGCGAUAGCGCCAACGUCCUCAACCUCCAAUGCAUCCCACCACAUGAUGAUGCCUGAAGAGCCUUGGUUUUUUG"}}}
{"variants_of": "B1", "experiment": "polymerase ribozyme fitness, log enrichment relative to wild type (log ratio); higher = more active; in vitro selection for triplet polymerase activity", "method_in_brief": "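To select mutant libraries of each subunit of a heterodimeric triplet polymerase ribozyme, built by PCR and transcribed, each was annealed with a biotinylated primer, partner subunit and triplets, then incubated frozen at −7 °C. Extended constructs were gel-excised, captured on streptavidin beads and amplified by RT-PCR, in one round carried out in triplicate. Illumina sequencing of input and output libraries kept genotypes with ≥10 input reads and ≥1 read per output. Fitness is the base-2 logarithm of genotype enrichment relative to wild-type enrichment, from inverse-variance-weighted replicate averages.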"}
{"variant": "GACCAAUCUGCCCUCAGAGCUCGAGAAUAUCUUCGGAUGCAGAGAAGGCAGGCUUCGGUGGCUCGAUAGCGCCAACGCCCUCAACCUCCAAUGCAUCCCACCACAUGAUGAUGCCUGAAGAGCCUUGGUUUUUUG", "note": "[C28U G45A G63U U78C]", "polymerase ribozyme fitness (log ratio)": -5}
{"variant": "GACCAAUCUGCCCUCAGAGCUCGAGAACAUCUUCAGAUGCAGAGGAGGCAGGCUUCGGUGGCGCGAUAGCGCCAACGUCCUCAAUCUCCAAUGAAUCCCACCACAUGAUGAUGCCUGAAGAGCCUUGGUUUUUUG", "note": "[G35A C85U C94A]", "polymerase ribozyme fitness (log ratio)": -6.51}
{"variant": "GACCAAUCUGUCCUCUGAGCUCGAGAACAUCUUCGGAUGCAGAGGAGGCAGGCGUCGGCGGCGCGAUAGCGCCAACGUCCUCAACCUCCAAUGCAUCCCACCACAUGAUGAUGCCUGAAGAGCCUUGGUUUUUUG", "note": "[C11U A16U U54G U59C]", "polymerase ribozyme fitness (log ratio)": -3.88}
{"variant": "GACCAAUCUGCCCUUAGAGCUCGAGAACAUCUUCGGAUGCAGAGGAGGAAGGCUUCGGUGGCGCGAUAGCGCCAACGUCCUCAACCUCCAACGCAUCCCACCACAAGAUGAUGCCUGAAGAGCCUUGGUUUUUUG", "note": "[C15U C49A U92C U106A]", "polymerase ribozyme fitness (log ratio)": -3.27}
{"variant": "GACCAAUCUGCCCACAGAGCUCGAGAACAUCUUCGGAUGCAGAGGAGGCAGGCUUCGGUGGCGCGAUAGCGCCGACGUCCUCAACCUCCAAUGCAUCCCACCACAUGAUGAUGCCUGAAGAGCCUUGGUUUUUUG", "note": "[U14A A74G]", "polymerase ribozyme fitness (log ratio)": -2.63}
{"variant": "GACCCAUCUGCCCUCAGAGCUCGAGAACAUCUUCGGAUGCAGAGGAGGCAGGCUUCGGUGGCGCGAUAGCGCCAACGUCCUAAACCUCCAAUGCAUCCCAGCACAUGAUGAUGCCUGAAGAGCCUUGGUUUUUUG", "note": "[A5C C82A C101G]", "polymerase ribozyme fitness (log ratio)": -3.77}
{"variant": "GACCAAUCUGCCCUCAGAGCUCGAGGACAUCUUCGGAUUCAGAGGAGGCAGGCUUCGGUGGCGCGAUACCGCCAAUGUCCUCAACCUCCAAUGCGUCCCACCACAUGAUAAUGCCUGAAGAGCCUUGGUUUUUUG", "note": "[A26G G39U G69C C76U A95G G110A]", "polymerase ribozyme fitness (log ratio)": -5.41}
{"variant": "GACCAAUCUGCCCUCAGAGCUCGAGAACAUCUUCGGAUGCAGAGGAGGCAGGCUUCGGUGGCGCGAUAGCGCUAACGUCCUCAACCUUCAAUGCAUCCCACCACAUGAUGAUGCCUGAAGAGCCGUGGUUUUUUG", "note": "[C73U C88U U125G]", "polymerase ribozyme fitness (log ratio)": -1.1}
{"variant": "GACCAAUCUGCCCUCAGAGCUCGAGAACAUCUUCGGAUGAAGAGGAGACAGGCUACGGUUGCGCGAUAGCGCCAACGUCCUCAACCUCCAAUGCGUCCCACCACAUGAUGAUGCCUGAACAGCCUUGGUUUUUUG", "note": "[C40A G48A U55A G60U A95G G120C]", "polymerase ribozyme fitness (log ratio)": -1.07}
{"variant": "GACCAAUCUGUCCUCAGAGCUCGAGAACAUCUUCGGAUGCAGAGGAGGCAGGUUUCGGUGGUGCGAUAGCGCCAACGUCCUCAACCUCCAAUGCAUCCCACCACAUGAUAAUGCCUGAAGAGCCUUGGAUUUUUG", "note": "[C11U C53U C62U G110A U129A]", "polymerase ribozyme fitness (log ratio)": -4.11}
{"variant": "GACCAAUCUGCCCUCCGAGCUCGAGAACAUCUUCGGAUGCAGAGGAGGCUGGCAUCGGUGGCGCGAUAGCGCCAACGUCCUCAACGUCCAAUGCAUCCCACCACAUGAUGAUGCCUGAAGAGCCUUGGUUUUUUG", "note": "[A16C A50U U54A C86G]", "polymerase ribozyme fitness (log ratio)": -5.88}
{"variant": "GACCAAUCUGCCCUCAGAGAUUGAGAACAUCUUCGGAUGCAUAGGAGGCAGGCUUCGGUGGCGCGAUAGCGCCAACGUCCUCAACCUCCAAUGCAUCCCACCACAUGAUGAUUCCUGAAGAGCCUUGGUUUAUUG", "note": "[C20A C22U G42U G113U U132A]", "polymerase ribozyme fitness (log ratio)": -3.71}
{"variant": "GACCAUUCUGCCCUCAGAGCUCGAGAACAUCUUCGGAUGCAGAGGAGGCAGGCUUCCGUGGCGCGAUAACGCCAACGUCCUCAACCUCCGAUGCAUCCCACCACAUGAUGAUGCCUGAAGAGCCUUGGUUUUUUG", "note": "[A6U G57C G69A A90G]", "polymerase ribozyme fitness (log ratio)": -2.65}
{"variant": "GACCAAUCUGCCCUCAGAGCUCGAGAACACCUUCGGAUGCAGAGGAGGCAGGCUUCGGUGGCGCGAUAGCGCUAACGUCCUCAACCUCCAAUGCAUCCCACCACAUGAUGAUGCCUGAAGAGCCUUGGUUUUUUG", "note": "[U30C C73U]", "polymerase ribozyme fitness (log ratio)": -2.48}
{"variant": "GACCAAUCUGCCCUCAGAGAUCGAGAACAUCUUCGGAUGCAGAGGCGGCAGGCUUCGGUGGCGCGAUAGCGCCGACGUCCUCAACCUCCAAUCCAUCCCACCACAUGAUGAUGCCUGGAGAGCCUUGGUUUUUUG", "note": "[C20A A46C A74G G93C A118G]", "polymerase ribozyme fitness (log ratio)": -5.42}
{"variant": "GACCAAUCUGCCCUCAGAGCCCGAGAACGUCUUCGGUUGCAGAGGAGGCAGGCUUCGGUGGCGCGAUAGCUCCAACGUCCUCAACCUCCAAUGCAUCCCACCACAUGAUGAUGCCUGAAGAGCCUUGGUUUUUUG", "note": "[U21C A29G A37U G71U]", "polymerase ribozyme fitness (log ratio)": -1.56}
{"variant": "GACCAAUCUGCCCUCAGAGCUCGAGAACAUCUUCGGAUGCAGUGGAGGCAGGCUUCGGUGGCGCGAUAGCGCCAACGUCCUCAAGCUCCAAUGCCUCCCACCACAUGAUGACGCCUGAAGAGCCUUGGUUUUUUG", "note": "[A43U C85G A95C U112C]", "polymerase ribozyme fitness (log ratio)": -2.22}
{"variant": "GACCAAUCUGCCCUCAGAGCGCGAGAACAUCUUCGGAUGCAGAGGAGGCAGGCUGCGGUGGCGCGAUAGCGCCAACGUCCUCAACCUCCAAUGCAUCCCACCACAUGAUGAAGCCUGAAGAGCCUUGGUUUUUUG", "note": "[U21G U55G U112A]", "polymerase ribozyme fitness (log ratio)": 1.42}
{"variant": "GACCAAUCUGCCCUCAGAGCUCGAGAACAUCUUCGGAUGCAGAGGAGGCAGGCUUCGGUGGCGCGAUAGCGCCAACGUCCUCAACCUCCAAUGCAGCCCACCACAUGAUGAUGCCUGAAGAGCCUUGGUUUUUUG", "note": "[U96G]", "polymerase ribozyme fitness (log ratio)": -0.532}
{"variant": "GACCCAUCUGACCUCAGAGCUCGAGAACAUCUUCGGAUGCAGAGGAGGCAGGCAUCGGUGGCGCGAUAGCGCCAACGUCCUCAACCUCCAAUGCAUCCCACCAUAUGAUGAUGCCUGAAGAGCCUUGGUUUUUUG", "note": "[A5C C11A U54A C104U]", "polymerase ribozyme fitness (log ratio)": -0.94}
{"variant": "GACCAAUCUGCCCUCAGAGCCCGAGAACAUCUUCGGAUGCAGAGGAGUCAGGCUUCGGUGGCGCGAUAGCGCCAACGUCCUCAACCUCCAAUGCAUCCCACCACAUGAUGACGCCUGUAGAGCCUUGGUUUUUUG", "note": "[U21C G48U U112C A118U]", "polymerase ribozyme fitness (log ratio)": 1.11}
